This note sets out measurements from the DeepSol protein solubility set.

The series is described as follows: soluble on expression in E. coli; label from the status in PepcDB or PDB records.
With “MGSDKIHHHHHHMTVRQIIQLAGTLDIPGLPQLDVTQDEISIANLTPLKLWAATAGWGASADDLGFEDRVTGNKIPLNGSATSSRLVNAFDGSQALSQGTAGAVLKDDSFSTAGSFTIAMNLCAINDELTCAPASSSVLPGSGQSYWFLASSAGKFRIGTTSLSTQFADYLGPLLSRTAWLRLILKYDRAVGTMTLYVNGVQQAKLTNDALKTLSLAPGLVMGGLVTTTATPTSPPCLMRSPMGFNSALSDSELALVDRYLSKTLY”, the “soluble on expression in E. coli” value was “not soluble”.

As for “MNMKPESKEAPINIRAKASQRDLIDMAANLVAKSRTDFMLDAACREAQDILLDQRLFILDDEQYDAFLAALDAPITAERQAKINALMNRKSPWE”, the “soluble on expression in E. coli” value was “soluble”.

In the case of “KLEYRISYDDEKEIKAIVFIIGGYGANANIYFLDSYRNYIAKNFDVVAVHVFYHCFCQRRSDVEKYSAYKYFQEEDIENIKNLLNQFHFSYGEINNDNALFLANSLVKHVENLKMQNKLDHNFKLNFTSTFIPPNGDYQNYGIMAAIDHINALKDLVKRFPKFADLPK”, the “soluble on expression in E. coli” value is on record as “not soluble”.

For the sequence “MGHHHHHHGGHMSLRTEEEMFQLIMDVAKQEEHIRAVGMVGSRTNVKAPKDSFQDFDIVYIVEPCAEFFETATWIAKFGQPLIMQRPKEMTLFPTEPKTRETFLMLFEDGQRIDLTLCPLAEKDNWHEGDSLAIILLDKDENLPPLPVASDKNYTVTVPDQQQFNDCCNEFWWVSTYVVKGLCRNELFYAVTHLYEYCQQELLRLLSWQAAWQEPEPISVGKQFKYLKNYVTPDTMDQLASLLDFSSKEACWNSLIKTQAFFDVVAQDFAKMAQFTYHLQEAKKVTEYTNSLRLKDLQGKEGGS”, the “soluble on expression in E. coli” value is “not soluble”.

For the sequence “MGSDKIHHHHHHMIDELRAMAIFAETIKQGSFRAAAKELKLSPSVVSYQVTQLEKSVGTALIYRSTRKLSLTSEGGVLYQYALNMIQAAQQGLNQVAIEKQELRGTLTLTLPSALIKSEISKKISQFSKLHPFLNFKLFYTDDRQDLIHQGIDLAFRAGSMDDSNLKSKRVGEINRKLVCSYDYWKENIPPISPQDLTTWNWIKLDMLPNHRTLVNSAGEKCDIDFESNISVNNVEAMTQLCINGAGIATPPDYLIEKEIENNALVELLPNWQVESIPLYAVWPSNVFQNSSVKRLLEFLI”, the “soluble on expression in E. coli” value is “not soluble”.

On to “MFDRSRKGEYALLIQPLTDHSAEDGALEEFADLTRSAGATVAGSLAVRIHRPNPSTLLSSGKLKEIKETADATGADLILINHSLSPVQERNLEKSLERRVIDRTGLILDIFAQRACSHEGKLQVELAQLRHLATRLVRGWTHLERQRGGAIGLRGPGETQLETDRRLLQKRVEQLQKRLSKVEVQRTQMRRARVRSEVPRIALVGYTNSGKSTLFNALTGASAYTANQLFATLDPKVRRIVLPGSSAMLADTVGFVRHLPHELVAAFRSTLSEAREADLLLHVIDAADPLREERIDQVDEVLQAIGAGELPQLLVFNKIDCIEGAEVRQDAQDGIPDQARRERVWLSARHGHGVELLQQILNHRLKIQNVQSELRLPPSEGRLRARLHELKGVREEQTDEHGWLLKIDLSLAEIERLAASDYGIPLRALLQDHRDAWTPTLHSKYVSAEYLEHHHHHH”, for which the “soluble on expression in E. coli” value was “not soluble”.

Consider “MNIGVIGTGNMGTILIEAFLDSGAVKADQLVITNRTLAKAFAIQRAHPGIAVVADAAEVIKQSSLVFLCVKPLDIHPLLQQLAPHWTREHCLVSITSPISVEQLEAAVPCQIVRAIPSIANRALSGSILVTFGSRCSTTCRQTIDDLLRRIASPVYIDEAITRVASDISSCGPAFFSYLLQRFIDAAAAKTAITKEQATMLATDMIIGLGELLKRNLYTLPTLQEKVCVKGGITGEGIAVLEQRMNGVFEEVLAKTHEKFKEDVEKVKQQFS”, for which the “soluble on expression in E. coli” value is recorded as “not soluble”.

For the sequence “MSLNQQYNAFSVLVVDDELGMQAILKKALGKLFSHVDTAGSIEEAEQLRNSRHYDLILLDINLPGRSGIEWEEAFEDDEKRADVIFMTGYADLEIAIRALQLGASDFILKPFNLEQMLKAVSRCMDRRLNERMQYAMKRDYQRHNTSEIIGGSEKTRQLKQLITQFAPSRASVLVEGESGTGKELVARGIHQASGRTGPFVPINCGAIAPELLESELFGHTSGAFTGAKKSREGLFRVANGGTLFLDEIGEMPLSMQASLLRVLEQRTIRPVGSEREISIDVRIVAATNRNLQEEVNQGNFRSDLYYRLNVLKIEVCPLRERKTDLFELVPFFSNMLTRELGMPAPKWAHEDMEAMSEYDWPGNIRELKNLIERCILLGKPPAHYWRELNGGHSLPNVSEGHHHHHH”, the “soluble on expression in E. coli” value is given as “soluble”.

For “MMVDTGVDHRAVSSHDGPDAGRRVFGAADPRFACVVRAFASMFPGRRFGGGALAVYLDGQPVVDVWKGWADRAGWVPWSADSAPMVFSATKGMTATVIHRLADRGLIDYEAPVAEYWPAFGANGKATLTVRDVMRHQAGLSGLRGATQQDLLDHVVMEERLAAAVPGRLLGKSAYHALTFGWLMSGLARAVTGKDMRLLFREELAEPLDTDGLHLGRPPADAPTRVAEIIMPQDIAANAVLTCAMRRLAHRFSGGFRSMYFPGAIAAVQGEAPLLDAEIPAANGVATARALARMYGAIANGGEIDGIRFLSRELVTGLTRNRRQVLPDRNLLVPLNFHLGYHGMPIGNVMPGFGHVGLGGSIGWTDPETGVAFALVHNRLLSPLEHHHHHH”, the “soluble on expression in E. coli” value is “not soluble”.

As to “MKPRVEILMSTYNGEKFLAEQLDSILAQTHQYFVLTVRDDGSKDGTPDILSRYAATDERITYCVQENRGVVGSFYWLLKNSSPLSNYVAFSDQDDVWLPNKLERALDVLSRYDETLPLLYCSRVEYVSAGLGHLDDSPMMVRPVCLNNALIQNVATGCTVVMNKAARDLLLEREWPPQVLMHDWWSYIVVSAFGKVVYDDFVSIKYRQHGGNVIGGTVSFVSDYRSRIINFLSRRRKGVFGCYDQAYSFWLGYKDELKGESRGIVSQFIESKRSFLSRLNYLTSSQRVYRHRFIDDVLVRLLILSNKYLEHHHHHH”, the “soluble on expression in E. coli” value is recorded as “not soluble”.

For “MGSDKIHHHHHHMKYDVVVIGAGGAGYHGAFRLAKAKYNVLMADPKGELGGNCLYSGCVPSKTVREVIQTAWRLTNIANVKIPLDFSTVQDRKDYVQELRFKQHKRNMSQYETLTFYKGYVKIKDPTHVIVKTDEGKEIEAETRYMIIASGAETAKLRLPGVEYCLTSDDIFGYKTSFRKLPQDMVIIGAGYIGLEIASIFRLMGVQTHIIEMLDRALITLEDQDIVNTLLSILKLNIKFNSPVTEVKKIKDDEYEVIYSTKDGSKKSIFTNSVVLAAGRRPVIPEGAREIGLSISKTGIVVDETMKTNIPNVFATGDANGLAPYYHAAVRMSIAAANNIMANGMPVDYVDVKSIPVTIYTIPSLSYVGILPSKARKMGIEIVEAEYNMEEDVSAQIYGQKEGVLKLIFERGSMRLIGAWMIGVHSQYLINELGLAVAYGLNAKQLASFAEQHPSTNEIISYTARKVI”, the “soluble on expression in E. coli” value is “not soluble”.

Take “MIKLENEVLLVEMKTAGAELTRIFHKDTGLEYLWNADSKFWGRHSPVLFPTVGRLVEDTYLVDGKPYHLGQHGFARDRDFQVVEQTEKSVRFELDADEDSLAVYPYKFKLSIIYTIEKNTVAVSYEVENTDNKRIYFSIGAHPAFNLPLTDGTTFEDYYLDFGTEENLETLCLEGPYRSGEIKKVVDEAARYLPLNYDLFKNDALIFEALKQKEMTIKSDKTPHFVKVSFPEFPFVGVWTAKAGTPFLCIEPWYGIADGAGESVELRDKAGIEHLEPEAVFASEYEITVGLEHHHHHH”: the “soluble on expression in E. coli” value was “soluble”.

On to “MKKVLIAALIAGFSLSATAAQTIRFATEASYPPFESMDANNKIVGFDVDLANALCKEIDASCTFTNQAFDSLIPSLKFRRFDAVMAGMDITPEREKQVLFTTPYYDNSALFVGQQGKYTSVDQLKGKKVGVQNGTTHQKFIMDKHPEITTVPYDSYQNAKLDLQNGRIDAVFGDTAVVTEWLKANPKLAPVGDKVTDKDYFGTGLGIAVRQGNTELQQKFNTALEKVKKDGTYETIYNKWFQK”, for which the “soluble on expression in E. coli” value is “not soluble”.

Turning to “MHAVHQLHQYRKSLSTTTYKSRGQRVIRCQLCQLAKPFCICEISPLKENVETTAGFLLLMYDTEVLKPSNTGKLIADLIPDTFAFLWSRTQENPDLLAVINDEKWFPLVVFPQEYADDERKVFTNNVICPEGKRPLFIMLDGSWREAKKMFRKSPYLDRFPMVSFDVKTAIQAVSGNCQSENNSQLSPVGQDSRYTVRKTELEHQFSTAEVAARVLDMHGETTNAHMLDLWFDVFNFQYQKGVCQRNKGNVNAIENYQSFLAKTYRLEHHHHHH”, the “soluble on expression in E. coli” value is “not soluble”.

Turning to “ADPVMLEIFNNRFMSVAEQMGYTLQNTAHSVNIKERLDFSCAIFDGKGNLIANAPHIPVHLGSMGECVKYLIRARSVEMTAGDVYLINSPYHGGTHLPDLTVVTPMSGNLGEILFYLASRGHHADVGGVTPGSMPPDSRTIEEEGVLSEGMKIVEQGRFLEEKLRLWLGSGKYPARNPDQNVADIRAQVAANEKGLQELHRMVEEFSLETVEAYMGHVQDNAEEAVRRVIDRLEDGEFTYPLDDGNAIKVKVKIDRENRNAKIDFSGTSSQLPSNFNAPASVCLAAVLYAFRTLVKSDIPLNAGCLRPLEIIIPEGSMLKPEPPASVVAGNVETSQYIVDAIFGALGSLAASQGTMNNFTFGNADFQYYETICGGSGAGPGFSGTDAVHTHMTNSRITDPEVLETRFPVLLEEFSIRQGSGGEGEFRGGNGVVRKFRFLKDMDAAILSSHRKFPPFGLKGGMPGKCGKNTLIRRDGSVIEAGGKAELKLKSEDVFVIETPGGGGYGRPENFRPEK”, the “soluble on expression in E. coli” value is “not soluble”.

Turning to “MQLSTLTALSPLDGRYQDKVTPLRAIFSEFGLMKFRVAVEVRWLQKLASTADITEVPPFSTQANAFLDGIVANFNEADAARIKEIERTTNHDVKAVEYFLKEKIQNEVELVKVSEFIHFACTSEDINNLSHALMLSTARDEVILPEWQKLIDEITRLAEEYKTIPLLSRTHGQPASPSTVGKEMANVVYRLKRQFKQLQNAEILGKINGAVGNYNAHLSAYPNIDWHKFSEEFVTSLGIQWNPYTTQIEPHDYITEFFDAVVRFNTIIIDFDRDLWGYIALNHFKQRTIAGEIGSSTMPHKVNPIDFENSEGNLGLANAVMTHLGQKLPISRWQRDLTDSTVLRNLGVGLGYCLIAYASTRKGISKLEVNQPHLLEELNQNWEVLAEPIQTVMRRYGIEKPYEKLKELTRGKRVTEQAMREFIDKLDIPQEEKLRLQKLTPATYIGAAVELVEKLS”, the “soluble on expression in E. coli” value is listed as “not soluble”.

In the case of “MSERRDCIVCTSGTCGRSWVFFRSGSGRRCIRSIFRESEGRTFGSNRISGSADHWTAIVERRKSRERGSKMKKEMTNDMTVGSPTKLIIQFMIPMCLGNVFQQFYNIADS”, the “soluble on expression in E. coli” value was “not soluble”.

For the sequence “MGHHHHHHSHMHPDCGFLLNKDVGNIAKYDIRVKNLKSRLRGGKMRYQEEEARLASFRNWPFYVQGISPCVLSEAGFVFTGKQDTVQCFSCGGCLGNWEEGDDPWKEHAKWFPKCEFLRSKKSSEEITQYIQSYKGFVDITGEH”, the “soluble on expression in E. coli” value is reported as “soluble”.

On to “MGSDKIHHHHHHMSQMHQQLINEYTRTRLNEEAVSIERIYFYKTDKRVNPKQEEPFWHAAGDIPILVSAPHAVRHFRQKKIKMSDEYTGSIVYLLNKLTGCHAIAVTKLYGGDPNVDSPCIYKEKLAQLCRQGKIKLLLDIHGAARDRDFDVDFGTNNRRNLLEKMHTDEILAQNFRNCGFSKISSDYFAASSPNTIANFAARELGIPAVQIEINKHYRVPAQNPQGFHRLMAALVESINSVGRRYQEGWKDINRERKIR”, for which the “soluble on expression in E. coli” value was “not soluble”.

On to “MDNKTYEISSAEWEVMNIIWMKKYASANNIIEEIQMQKDWSPKTIRTLITRLYKKGFIDRKKDNKIFQYYSLVEESDIKYKTSKNFINKVYKGGFNSLVLNFVEKEDLSQDEIEELRNILNKK”, for which the “soluble on expression in E. coli” value is “soluble”.

As to “MSQTLKQLAMAKMAGFRHKTVVVPEWEGVKVVLREPSGEAWLRWQEVVKGGGDDENVSVSEKAHRNLCADVVLFIDVLCDTDKQPVFSVDEEEQVREIYGPVHSRLLKQALDLINNADEAREKSQPPA”, the “soluble on expression in E. coli” value was “not soluble”.
